Assay results published in patent publication US20250319180A1.

Target: human LY6H expressed on 293T cells (plasmid BBP491, M1-P140 plus Myc-DDK) (human) (UniProt O94772)
Assay: on-cell affinity by flow cytometry: unconjugated 12G7 (0.05-100 nM) competes with 1 nM PE-conjugated 12G7 on 293T cells expressing human LY6H; table row 293T-huLY6H

B1: 12G7 (antibody, V domains shown)
VH: QVQLQQWGAGLLKPSETLSLTCAVYGGSFSGYYWSWIRQPPGKGLEWIGEINHSGSTYYNPSLKSRVTMSVDTSKNQFSLKLSSVTAADTAVYYCAKRWELGAFDIWGQGTMVTVSS
VL: DIQMTQSPSSLSASVGDRVTITCRASQGISNYLAWYQQKPGKVPKLLIYAASTLQSGVPSRFSGSGSGTDFTLTISSLQPEDVATYYCQKYNSAPRTFGQGTKLEIK
Kd: 9.9 nM
